Experimental findings from patent US10927153 (UNIVERSITY OF SOUTH FLORIDA, dated 2021) are described below.

In experiment [1] the target is T1, Duffy Antigen Receptor for Chemokines (DARC) on human Duffy positive erythrocytes (human, UniProt Q16570 1-336).
T1 construct: whole, on cells; also called DARC positive erythrocytes
T1 sequence: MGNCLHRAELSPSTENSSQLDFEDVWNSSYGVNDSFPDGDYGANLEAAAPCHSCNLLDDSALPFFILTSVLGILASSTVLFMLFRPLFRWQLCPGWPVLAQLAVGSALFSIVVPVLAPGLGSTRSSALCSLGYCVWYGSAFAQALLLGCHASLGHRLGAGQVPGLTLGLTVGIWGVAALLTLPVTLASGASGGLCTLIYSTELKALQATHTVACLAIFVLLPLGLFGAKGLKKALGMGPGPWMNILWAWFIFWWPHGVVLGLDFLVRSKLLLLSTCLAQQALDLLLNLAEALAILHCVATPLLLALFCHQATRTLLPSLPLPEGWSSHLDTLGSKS
Kind of experiment: COS7 cell binding assay (rosettes).

Experiment [2] concerns the target T1, Duffy Antigen Receptor for Chemokines …. Briefly: in vitro erythrocyte binding assay, blot of eluted antigen.
Experiment [3] shares this target. Kind of experiment: in vitro erythrocyte binding assay, eluted antigen detected by blot with mAb-3D10.
Experiment [4] deals with T2, Sal-1 DBP-II expressed on the surface of HEK293T cells (Plasmodium vivax, UniProt P22290 198-525).
T2 construct: Expressed from the pRE4 vector on HEK293T cells; also called P. vivax Sal-1 DBP-II
Briefly: immunofluorescence on HEK293T cells, 10 ug/mL mAb.

Experiment [5] has as its target T3, Sal-1 DBP-II Mutant 1 (changes at residues 218 and 221-223), recombinant (Plasmodium vivax (strain Salvador I), UniProt P22290 211-525).
T3 chain: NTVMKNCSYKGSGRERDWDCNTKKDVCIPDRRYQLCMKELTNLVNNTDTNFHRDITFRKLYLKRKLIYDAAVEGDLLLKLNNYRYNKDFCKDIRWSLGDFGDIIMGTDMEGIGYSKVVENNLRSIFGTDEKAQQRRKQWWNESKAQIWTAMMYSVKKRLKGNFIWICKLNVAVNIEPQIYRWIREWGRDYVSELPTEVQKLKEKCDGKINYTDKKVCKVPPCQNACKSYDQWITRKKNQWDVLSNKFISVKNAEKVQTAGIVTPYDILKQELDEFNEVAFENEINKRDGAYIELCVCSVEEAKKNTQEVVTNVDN
Kind of experiment: ELISA on adsorbed recombinant protein.

For experiment [6], the target named is T4, Sal-1 DBP-II Mutant 12 (changes at residues 479 and 480), recombinant (Plasmodium vivax (strain Salvador I), UniProt P22290 211-525).
T4 chain: T3 chain with S8N, G11R, S12K, G13R, K269A, Q270A
Kind of experiment: ELISA on adsorbed recombinant protein.

Where a chain is given by its changes, count along the chain named.

B1: DBPII Sal1 expressed on the surface of COS7 cells (ligand)
chain: TISSAIINHAFLQNTVMKNCNYKRKRRERDWDCNTKKDVCIPDRRYQLCMKELTNLVNNTDTNFHRDITFRKLYLKRKLIYDAAVEGDLLLKLNNYRYNKDFCKDIRWSLGDFGDIIMGTDMEGIGYSKVVENNLRSIFGTDEKAQQRRKQWWNESKAQIWTAMMYSVKKRLKGNFIWICKLNVAVNIEPQIYRWIREWGRDYVSELPTEVQKLKEKCDGKINYTDKKVCKVPPCQNACKSYDQWITRKKNQWDVLSNKFISVKNAEKVQTAGIVTPYDILKQELDEFNEVAFENEINKRDGAYIELCVCSVEEAKKNTQEVVTNVDN
notes: also called COS7 cell surface-expressed Sal1; wild type DBPII Sal1
As for B1, the binding result in experiment [1] is reported as “binds”.

B2: recombinant DBPII Sal1 (ligand domain, region II, of Plasmodium vivax Duffy binding protein, Sal1 allele) (ligand)
chain: B1 chain
notes: also called rDBPII Sal1; rDBPII
For B2, the binding result in experiment [2] is listed as “binds”.

B3: recombinant DEKnull (designed binder)
chain: B1 chain with D142A, E143A, K144T, Q147A, R148T, K150S, W153T, N154S
notes: also called rDEKnull; original DEKnull
B3: the binding result in experiment [2] is on record as “binds”.

B4: DEKnull-4 expressed on the surface of COS7 cells (designed binder)
chain: TISSAIINHAFLQNTVMKNCNYKRKRRERDWDCNTKKDVCIPDRRYQLCMKALTNLVNNTDTNFHRDITARKAYLAAKLTADAASEGDLLLKLAATATSAATCKDIRWSLGDFGDIIMGTDMEGIGYSKVVENNLRSIFGTDEKAQQRRKQWWNESKATIWTAMMASATASAATSAATAAKLNVAVNIEPQIYRWIREWGRDYVSELPTEVQKLKEKCDGKINYTDKKVCKVPPCQNACKSYDQWITRKKNQWDVLSNKFISVKNAEKVQTAGIVTPYDILKQELDEFNEVAFENEINKRDGAYIELCVCSVEEAKKNTQEVVTNVDN
notes: also called COS7 cell surface-expressed DEKnull-4
On to B4, for which, in experiment [1], the binding result is reported as “no binding”.

B5: DEKnull-2 expressed on the surface of COS7 cells (designed binder)
chain: TISSAIINHAFLQNTVMKNCNYKRKRRERDWDCNTKKDVCIPDRRYQLCMKELTNLVNNTDTNFHADITFRKLYLKAKLIYDAAVEGDLLTKLNNYRYNKDFCKDIRWSLGDFGDIIMGTDMEGIGTSAVVENNLRSIFGTAATAQARRSQWTSESKAQIWTAMMYSVKKRLKGTFIWICKANVAVNIEPQIYRSIREWGRDYVAELPTEVTKLKEKCDGKINYADKKVCKVPPCQNACKSYDQWITRKANQWDVLSNKFTSAKNAEKAQTASIVTPYDILKQELDEFNEVAFENEINKRDGAYIELCVCSVEEAKKNTQEVVTNVDN
notes: also called COS7 cell surface-expressed rDEKnull-2
Take B5: the binding result in experiment [1] is reported as “binds”.

B6: DEKnull-3 expressed on the surface of COS7 cells (designed binder)
chain: TISSAIINHAFLQNTVMKNCNYKRKRRERDWDCNTKKDVCIPDRRYQLCMKELTNLTATATSAAHRDITFRKLYAARTSAYDAAVEGDLLLKLTNYRASTDACKAATWSLGDFGDIIMGTDMEGIGYSKVVATNLRSIFGTDEKAQQRRKQWTATSKAQIWTAMMAASTAASKGNAIWSCKLNVAVNIEPTIAAWIATSARATSSELPTEVQKLKEKCDGKINYTDKKVCKVPPCQNACKSYDQWITRKKNQWDVLSNKFISVKNAEKVQTAGIVTPYDILKQELDEFNEVAFENEINKRDGAYIELCVCSVEEAKKNTQEVVTNVDN
notes: also called COS7 cell surface-expressed DEKnull-3
With B6, the binding result in experiment [1] was “no binding”.

B7: recombinant DEKnull-3 (designed binder)
chain: TISSAIINHAFLQNTVMKNCNYKRKRRERDWDCNTKKDVCIPDRRYQLCMKELTNLTATATSAAHRDITFRKLYAARTSAYDAAVEGDLLLKLTNYRASTDACKAATWSLGDFGDIIMGTDMEGIGYSKVVATNLRSIFGTDEKAQQRRKQWTATSKAQIWTAMMAASTAASKGNAIWSCKLNVAVNIEPTIAAWIATSARATSSELPTEVQKLKEKCDGKINYTDKKVCKVPPCQNACKSYDQWITRKKNQWDVLSNKFISVKNAEKVQTAGIVTPYDILKQELDEFNEVAFENEINKRDGAYIELCVCSVEEAKKNTQEVVTNVDNHHHHHH
notes: also called rDEKnull-3
B7: the binding result in experiment [3] is recorded as “no binding”.

B8: recombinant DEKnull-4 (designed binder)
chain: TISSAIINHAFLQNTVMKNCNYKRKRRERDWDCNTKKDVCIPDRRYQLCMKALTNLVNNTDTNFHRDITARKAYLAAKLTADAASEGDLLLKLAATATSAATCKDIRWSLGDFGDIIMGTDMEGIGYSKVVENNLRSIFGTDEKAQQRRKQWWNESKATIWTAMMASATASAATSAATAAKLNVAVNIEPQIYRWIREWGRDYVSELPTEVQKLKEKCDGKINYTDKKVCKVPPCQNACKSYDQWITRKKNQWDVLSNKFISVKNAEKVQTAGIVTPYDILKQELDEFNEVAFENEINKRDGAYIELCVCSVEEAKKNTQEVVTNVDNHHHHHH
notes: Dimerization residues of Sal1 mutated; also called rDEKnull-4
Consider B8, for which, in experiment [3], the binding result is “no binding”.

B9: recombinant DEKnull-2 (designed binder)
chain: TISSAIINHAFLQNTVMKNCNYKRKRRERDWDCNTKKDVCIPDRRYQLCMKELTNLVNNTDTNFHADITFRKLYLKAKLIYDAAVEGDLLTKLNNYRYNKDFCKDIRWSLGDFGDIIMGTDMEGIGTSAVVENNLRSIFGTAATAQARRSQWTSESKAQIWTAMMYSVKKRLKGTFIWICKANVAVNIEPQIYRSIREWGRDYVAELPTEVTKLKEKCDGKINYADKKVCKVPPCQNACKSYDQWITRKANQWDVLSNKFTSAKNAEKAQTASIVTPYDILKQELDEFNEVAFENEINKRDGAYIELCVCSVEEAKKNTQEVVTNVDNHHHHHH
notes: Polymorphic residues of Sal1 mutated; also called rDEKnull-2
As to B9, in experiment [2], the binding result was “binds”.

B10: anti-DBPII monoclonal antibody mAb 2C6 (antibody, V domains shown)
VH: QVQLQQSDAELVKPGASVKISCKVSGYTFTDHSIHWMKQRPEQGLEWIGYIYPRDGSTEYNEKFKGKATLTTDKSSSTAYMQLNSLTSADSAVYFCARWFGYYFDYWGQGTTLTVSS
VL: NIMMTQSPSSLAVSAGEKVTMSCKSSQSVLYSSNQKNYLAWYQQKPGQSPKLLIYWASSRESGVPDRFTGSGSGTDFTLTISSVQPEDLAVYYCHQYLSSWTFGGGTKLEITR
For the molecule B10, the binding result was “binds” in experiment [4], “binds” in experiment [5] and “no binding” in experiment [6].
